According to patent US20220289846A1 (ZYDUS LIFESCIENCES, published 2022):

Target: T1, Human PD-1 (AcroBiosystems) (human, UniProt Q15116 25-167, limits assumed)
T1 construct: Bought recombinant protein, amine-coupled to the SPR chip
Test: SPR (ProteOn XPR), human PD-1 amine-coupled on GLC chip, antibody as analyte, Langmuir model
Procedure: Human PD-1 (AcroBiosystems) was directly immobilized onto the GLC Chip (ProteOn) using amine-coupling method to obtain a ligand immobilization level of about 500 RU. 10 mM Phosphate Buffered Saline (PBS) (10mM phosphate buffer, pH 7.4, 300 mM NaCl, 0.005% Surfactant P20) was used as the running buffer to carry out the kinetic measurements. All the one step purified antibody samples were diluted in running buffer described above at a suitable concentration in series of concentrations from 10 nM to 0.09 nM. These samples were injected over the chip at a flow rate of 50 μL/min with an association time of 300 s and dissociation time of 1800s. After each sample run, the chip surface was regenerated with 10mM Glycine Buffer pH 1.5 for 18 sec at a flow rate of 100 μL/min.
KD values (Kinetic constants) were determined as the ratio of dissociation rate (kd) to association rate (ka), i.e. KD =kd/ka using ProteOn manager software v3.1.0.6.

T1 sequence (Q15116 25-167 limits assumed): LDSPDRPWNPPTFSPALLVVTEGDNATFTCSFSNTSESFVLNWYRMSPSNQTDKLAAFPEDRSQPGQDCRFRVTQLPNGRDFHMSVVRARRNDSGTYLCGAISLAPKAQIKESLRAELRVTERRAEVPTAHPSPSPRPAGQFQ

Binder	Kd	koff	kon
N7NL (antibody, human IgG4 S228P, kappa, V domains shown, Full-length IgG4 from the pZRCIII hyg.IgG4 vector) VH: QVQLVESGGGVVQPGRSLRLDCKASGITFSNSGMHWVRQAPGKGLEWVAVIWYDGSKRYYADSVKGRFTISRDNSKNTLFLQMNSLRAEDTAVYYCATNSDYWGQGTLVTVSS VL: EIVLTQSPATLSLSPGERATLSCRASQSVSSYLAWYQQKPGQAPRLLIYDASNRATGIPARFSGSGSGTDFTLTISSLEPEDFAVYYCQQSSNWPRTFGQGTKVEIKR	0.0491 nM	9.54e-05 s⁻¹	1.95e+06 M⁻¹ s⁻¹
IP-H4L1 (IgG4) (antibody) heavy: not shown light: EIVLTQSPATLSLSPGERATLSCRASKGVSTSGYSYLHWYQQKPGQAPRLLIYLASYLESGVPARFSGSGSGTDFTLTISSLEPEDFAVYYCQHSRDLPLTFGGGTKVEIKRTVAAPSVFIFPPSDEQLKSGTASVVCLLNNFYPREAKVQWKVDNALQSGNSQESVTEQDSKDSTYSLSSTLTLSKADYEKHKVYACEVTHQGLSSPVTKSFNRGEC	0.0286 nM	5.36e-05 s⁻¹	1.87e+06 M⁻¹ s⁻¹
IP-H4.36L1 (antibody, human IgG4 S228P, kappa, V domains shown) VH: QVQLVQSGVEVKKPGASVKVSCKASGYTFTTYYIYWVRQAPGQGLEWMGGVNPSNGGTNYNQNYKNRVTLTTDSSTTTAYMELKSLQFDDTAVYYCARRDYRYDMGFDYWGQGTTVTVSS VL: EIVLTQSPATLSLSPGERATLSCRASKGVSTSGYSYLHWYQQKPGQAPRLLIYLASYLESGVPARFSGSGSGTDFTLTISSLEPEDFAVYYCQHSRDLPLTFGGGTKVEIKR	0.0317 nM	6.2e-05 s⁻¹	1.96e+06 M⁻¹ s⁻¹
IP-H4.19L1 (antibody, human IgG4 S228P, kappa, V domains shown) VH: QVQLVQSGVEVKKPGASVKVSCKASGYTFTTYYIYWVRQAPGQGLEWMGGVNPSNSGTNYNENYKNRVTLTTDSSTTTAYMELKSLQFDDTAVYYCARRDYRYDMGFDYWGQGTTVTVSS VL: EIVLTQSPATLSLSPGERATLSCRASKGVSTSGYSYLHWYQQKPGQAPRLLIYLASYLESGVPARFSGSGSGTDFTLTISSLEPEDFAVYYCQHSRDLPLTFGGGTKVEIKR	0.0409 nM	6.28e-05 s⁻¹	1.54e+06 M⁻¹ s⁻¹
IP-H4.2L1 (antibody, human IgG4 S228P, kappa, V domains shown) VH: QVQLVQSGVEVKKPGASVKVSCKASGYTFTTYYIYWVRQAPGQGLEWMGGVNPSNGGTNYNENYKNRVTLTTDSSTTTAYMELKSLQFDDTAVYYCARRDYRYDMGYDYWGQGTTVTVSS VL: EIVLTQSPATLSLSPGERATLSCRASKGVSTSGYSYLHWYQQKPGQAPRLLIYLASYLESGVPARFSGSGSGTDFTLTISSLEPEDFAVYYCQHSRDLPLTFGGGTKVEIKR	0.0082 nM	1.37e-05 s⁻¹	1.67e+06 M⁻¹ s⁻¹

More lines, in order of falling Kd, values ahead:

Kd	koff	kon	Binder
0.0826 nM	0.000154 s⁻¹	1.86e+06 M⁻¹ s⁻¹	N6NL (antibody, human IgG4 S228P, kappa, V domains shown, Full-length IgG4 from the pZRCIII hyg.IgG4 vector) VH: QVQLVESGGGVVQPGRSLRLDCKASGITFSNSGMHWVRQAPGKGLEWVAVIWYDGSKRYYADSVKGRFTISRDNSKNTLFLQMNSLRAEDTAVYYCATNSDHWGQGTLVTVSS VL: EIVLTQSPATLSLSPGERATLSCRASQSVSSYLAWYQQKPGQAPRLLIYDASNRATGIPARFSGSGSGTDFTLTISSLEPEDFAVYYCQQSSNWPRTFGQGTKVEIKR
0.075 nM	0.000151 s⁻¹	2.03e+06 M⁻¹ s⁻¹	N5NL (antibody, human IgG4 S228P, kappa, V domains shown, Full-length IgG4 from the pZRCIII hyg.IgG4 vector. 'NSNL' in the text is an OCR form of N5NL; also called NSNL) VH: QVQLVESGGGVVQPGRSLRLDCKASGITFSNSGMHWVRQAPGKGLEWVAVIWYDGSKRYYADSVKGRFTISRDNSKNTLFLQMNSLRAEDTAVYYCATNSDFWGQGTLVTVSS VL: EIVLTQSPATLSLSPGERATLSCRASQSVSSYLAWYQQKPGQAPRLLIYDASNRATGIPARFSGSGSGTDFTLTISSLEPEDFAVYYCQQSSNWPRTFGQGTKVEIKR
0.0248 nM	5.21e-05 s⁻¹	2.12e+06 M⁻¹ s⁻¹	IP-H4L1 (IgG1) (antibody) heavy: not shown light: EIVLTQSPATLSLSPGERATLSCRASKGVSTSGYSYLHWYQQKPGQAPRLLIYLASYLESGVPARFSGSGSGTDFTLTISSLEPEDFAVYYCQHSRDLPLTFGGGTKVEIKRTVAAPSVFIFPPSDEQLKSGTASVVCLLNNFYPREAKVQWKVDNALQSGNSQESVTEQDSKDSTYSLSSTLTLSKADYEKHKVYACEVTHQGLSSPVTKSFNRGEC
